Laboratory results as given in US20220409696A1, “Heparin-Associated Polypeptides and Uses Thereof” (Juvena Therapeutics, Inc., priority 2021, published 2022).

System: DM1 human myoblast
Experiment: Gene expression fold change in DM1 human myoblast
Assay type: cell-based
Conditions: 48 h; BMP7 50 ng/mL, Butyrate 100 nM, IGF2 200 ng/mL
Protocol: Myoblasts were cultured 48 h in the presence of factors (BMP7 50 ng/mL, Butyrate 100 nM, IGF2 200 ng/mL).
Myoblasts were cultured 96 h in the presence of factors (IGF2 200 ng/mL). […] Myoblasts were cultured 48 h in the presence of factors (IGF2 200 ng/mL).
RNA was isolated from each well (RNeasy Mini Kit, Qiagen) and cDNA was obtained by reverse-transcription (High Capacity Reverse Transcription Kit, Thermo Fisher Scientific). Real-time quantitative PCR was performed using QuantStudio3 (Thermo Fisher).
IGF2 was tested individually for its ability to promote proliferation and/or fusion of human muscle progenitor cells from an individual with myotonic dystrophy type 1 (hMD)—a muscular dystrophy caused by mutations in the DMPK1 gene. The effect of IGF2 on myogenic activity was assayed in biological triplicate across a range of concentrations centered around expected physiological levels by adding each factor to hMD myoblasts for 72 hours with daily media changes (DMEM+2% horse serum) and a second pulse of factors at the first media change. After 72 or 96 hours, cells were pulsed for 2-5 hours with EdU (30 uM), ethanol fixed, stained with Hoescht 3342, immunostained for proliferation—as measured by the percent of cells staining positive for EdU (% EdU)-, and immunostained for differentiation—as measured by the increase in cellular area staining positive for embryonic myosin heavy chain (% eMyHC) relative to the negative controls, which received media and vehicle only. Wells were imaged on a Keyence BZ-100 at 4×, the images quantified in Cell Profiler, and the statistics were computed in R. Additionally, RNA was extracted from myoblast and select transcript abundances quantified by qPCR.

B1: BMP7: factor BMP7 added at 50 ng/mL to DM1 human myoblasts (protein, UniProt P18075 293-431, looked up)
Bone morphogenetic protein 7: STGSKQRSQNRSKTPKNQEALRMANVAENSSSDQRQACKKHELYVSFRDLGWQDWIIAPEGYAAYYCEGECAFPLNSYMNATNHAIVQTLVHFINPETVPKPCCAPTQLNAISVLYFDDSSNVILKKYRNMVVRACGCH
- MYF5 myogenic gene expression fold change compared to FM (vehicle): 0.709
- MYODI myogenic gene expression fold change compared to FM (vehicle): 0.709
- MYOG myogenic gene expression fold change compared to FM (vehicle): 0.361
